Measured values taken from the supplement of paper PMC10567573.

B1: SMTNL2 (parent)
chain: QKNFELAFTMAENLANCERLIEVE
B2: ZNF263 (parent)
chain: FGGNPRFLSLHRAHLGEEAHKCLE

Variants of: B1
Test: protein stability index of a GFP-peptide fusion (GPS, HEK-293T) (PSI 1-6); higher = more stable
Settings: c terminus: a fixed tail appended
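Also: lentivirally expressed fusions sorted by FACS into six bins by GFP to DsRed ratio, PSI derived from sequencing read proportions per bin multiplied by bin number.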

Row | Variant | protein stability index
1 | K2V | 1.67
2 | K2S | 1.76
3 | K2D | 2.51
4 | K2H | 1.13
5 | K2R | 2.34
6 | K2I | 2.71
7 | K2T | 1.03
8 | K2C | 1.77
9 | K2P | 2.24
10 | K2M | 1.7
11 | K2L | 1.78
12 | K2E | 1.84
13 | K2G | 1.74
14 | N3D | 3.28
15 | N3I | 3.48
16 | N3M | 3.62
17 | N3R | 1.76
18 | N3Y | 1.96
19 | N3Q | 1.81
20 | N3E | 1.61
21 | N3S | 1.78
22 | N3W | 3.6
23 | N3T | 2.09

Row | Variant | protein stability index
24 | N3V | 3.1
25 | E5H | 1.96
26 | E5A | 1.62
27 | E5K | 2.24
28 | E5D | 1.59
29 | E5T | 1.94
30 | E5L | 1.72
31 | E5G | 2.52
32 | E5Q | 1.25
33 | E5S | 1.39
34 | E5R | 3.01
35 | E5C | 2.87
36 | E5N | 2.96
37 | Q1G | 1.2
38 | Q1P | 2.56
39 | Q1Y | 1.97
40 | Q1L | 1.86
41 | Q1D | 1.28
42 | Q1K | 2.58
43 | Q1V | 1.54
44 | Q1T | 1.26
45 | Q1N | 1.67
46 | Q1F | 3.06

Row | Variant | protein stability index
47 | L6F | 1.91
48 | L6I | 2.12
49 | L6A | 3.32
50 | L6H | 2.55
51 | L6E | 2.46
52 | L6G | 3.23
53 | L6K | 2.65
54 | F4M | 2.31
55 | F4P | 4.09
56 | F4K | 4.05
57 | F4G | 3.73
58 | F4R | 3.06
59 | F4V | 2.87
60 | F4E | 2.94
61 | F4H | 1.98
62 | F4I | 2.53
63 | F4A | 2.45
64 | F4S | 3.4
65 | F4N | 3.27
66 | F4T | 3.51
67 | F4D | 3.72
68 | F4Y | 1.98

Variants of: B2
Test: as above
Settings: c terminus: a fixed tail appended

Row | Variant | protein stability index
69 | H20C | 2.94
70 | H20D | 2.28
71 | H20A | 1.24
72 | H20Y | 2.18
73 | H20I | 1.4
74 | H20E | 2.13
75 | H20G | 1.53
76 | H20N | 1.49
77 | H20W | 2.24
78 | H20S | 2.69
79 | H20Q | 1.04
80 | H20K | 2.56
81 | H20T | 1.55
82 | H20M | 2.13
83 | H20P | 1.83
84 | H20L | 1.61
85 | H20R | 1.66
86 | H20F | 1.98
87 | H20V | 1.43
88 | E24Y | 1.51
89 | E24N | 1.48
90 | E24V | 2.88
91 | E24R | 1.75
92 | E24H | 1.69
93 | E24L | 2.52

Row | Variant | protein stability index
94 | E24G | 1.72
95 | E24A | 1.77
96 | E24F | 1.7
97 | E24M | 2.31
98 | E24K | 1.76
99 | E24S | 2.75
100 | E24Q | 2.37
101 | E24T | 1.56
102 | E24W | 3.02
103 | E24C | 2.15
104 | E24I | 1.51
105 | E24D | 1.71
106 | E24P | 1.63
107 | C22Q | 2.66
108 | C22P | 2.44
109 | C22L | 1.38
110 | C22H | 2.44
111 | C22S | 3.62
112 | C22K | 2
113 | C22I | 1.59
114 | C22M | 1.74
115 | C22G | 1.62
116 | C22T | 1.47
117 | C22Y | 1.88
118 | C22W | 1.46

Row | Variant | protein stability index
119 | C22A | 1.78
120 | C22R | 1.75
121 | C22E | 2.19
122 | C22D | 2.15
123 | C22V | 2.51
124 | C22N | 2.17
125 | C22F | 1.74
126 | L23W | 1.75
127 | L23I | 2.02
128 | L23D | 1.63
129 | L23P | 2.02
130 | L23A | 2.65
131 | L23K | 1.91
132 | L23N | 2.21
133 | L23E | 1.97
134 | L23G | 1.76
135 | L23S | 1.63
136 | L23F | 1.8
137 | L23T | 2.51
138 | L23V | 1.83
139 | L23M | 1.96
140 | L23Q | 1.92
141 | L23R | 1.7
142 | L23C | 1.97
143 | L23Y | 1.75

Row | Variant | protein stability index
144 | L23H | 1.97
145 | K21I | 2.14
146 | K21L | 2.14
147 | K21Q | 2
148 | K21P | 2.13
149 | K21Y | 1.71
150 | K21T | 2.04
151 | K21D | 1.86
152 | K21F | 2.17
153 | K21C | 1.98
154 | K21M | 2.76
155 | K21V | 1.38
156 | K21H | 1.89
157 | K21R | 1.05
158 | K21G | 1.9
159 | K21S | 1.85
160 | K21E | 1.76
161 | K21N | 2
162 | K21A | 1.77
163 | K21W | 1.6
164 | A19T | 1.95
165 | A19W | 2.23
166 | A19Y | 1.57
167 | A19V | 1.91
